# Test: soluble fraction after stress (log2 fold change); higher = more stays soluble; pooled small domains, quantitative proteomics
# Settings: stress: pH 4
# Method in brief: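 Aggregation propensity is estimated from the fold change in each domain's soluble amount after acid stress. Pooled small-domain libraries were stressed at pH 4, and higher log2 values mean more stayed soluble.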
row,Sequence,soluble fraction (log2)
1,HMVVKSPLEMAFDKFREMRKKIRKPMTERAEELIWKELSKLAGEDSDLKIEILEQSIRNGWQDVYAVK,-0.064
2,HMVVLPGEVVALKIIQTGSSKDQGVGYLEDGTMVVVDGAKNSIGKTIEIQISRSHQTVAGRMLFGIAMS,-0.0841
3,HMVVQTELVRISITSLSGEDIRRLVQIKVVGATIEPFEGGGFLITGTAEQIAKAKDFLNSMSTEF,-1.29
4,HMVVRKHDRYYTPEHRKLLMDTYERTNKYPTKQDMSELAKIIGVLPIKILWWYTHRRRQDRRKGEESSSP,-2.23
5,HMVVTMEKIVVNDGGIRIDTYLADKLNISRSKVAKMLENNILVNNVKVKPSYKVTNNDIIEVEEYV,0.402
6,HMVVVLPGETIKIDLIREGKDKQALGYLEDGTMIVVDNAKHLIGKNVEIEIDNVLPKEAGRVIFASLHGA,-0.942
7,HMVVVMNADAEADEIKRVKWNLEQMLFRTQVIYGVKRIVIGAIGDQREVDLSEIEQMPKVDKIVRISK,-1.39
8,HMVVVPDVKGLKIEEAAEFFKNNNLHYNVIDSVFSKDVEPGAIVELSPLAGSKVKEGRIVFITVNALTS,-0.681
9,HMVVVVELTENEKAVQDVLTKNEGSLEISDLKTKLELSGKQWDKALKGLAKHGITQVAKVDGVVTVSL,-1.4
10,HMVWMIEKDQSVILVNKLERIQVEALGKALENGNFGDRIRVINNKSGQKLLGIVESEKKIQIISKI,-0.077
11,HMVYLPGEEIPLKIIQEGKESGQGVGYLEDGTMVVVENGRRYLNQEVLVQVTKILQTNAGRLIFAVP,0.11
12,HMVYLPSSIKNIPTKYGEMMVANFKMDELQANSKNGWVSMVISERREPSEKGATHYAYVNTY,0.106
13,HMVYNQYILTQSVRLREEPGISGRVIRLLETGTTVELVDTVVVNKDDYDWVWVKLSDGAVGWIIKSAIDI,-1.03
14,HMWDEMKDQKLVEALLLLREDERKLIYQHVFEERTFDDISRINGLPPYKVKGIYYYAIRKIRKWMG,-0.425
15,HMWGQDVLFTIDKKEFKGKLLEQSDKHTTFLPDGQKTPQKIPNRLIKEIHLGSNKIIDFGNDFLI,0.0314
16,HMWPDDAIALPTRDGQDVGGAQERTMLAFASGAAGIRTVEEINPDGSITRLRTRYGWPTFETEGARTAAAE,-0.221
17,HMWTIDPLDWKTENADQIVEKVMSEAKENAIILLHDRYEASVEAALRIVDLLKEQGYTFVTADKLV,-0.421
18,HMWTKKELWNAIAKLPKKQRTVVMMRIAQNLPYKDISEITGMSIGSAKVNYHHAVNSLKQWLS,0.22
19,HMWTPLVVAVLIGGTHRFGELRAAVGGITPKVLTETLRSMERDGLVVREQTPGVPPRVDYALTPLGA,-0.191
20,HMYAGTWISESGQWKYRNDDGSFAKGWFQDLDSRWYYFDANGHMLSDTLTPDGYRLGEDGAWVND,-1.42
21,HMYDESVFTGEYHYYYEKLSDDDKLIYRQIYAMMQKRMDGISLNTTDTDNVSRIQQFVLLDNPQF,-2.43

row,Sequence,soluble fraction (log2)
1,HMYDKKVFRLLFILNQLDSRKKVSTGELAKEFNVSPRTVQRDIVLLNTTGFPIISLEKGYHSFMEGFSLK,-0.7
2,HMYDPVNEIGRVLKKIRQERSLTLDNVAEITGVSKTMLGQIERGVSVPTISVLWKIAKGLQVSLSTLLNE,0.36
3,HMYEGLPVTLIIDGRVIEANLAKANRDMAWLERELANSGVRSHHDVFFATLDSRGQLYYQVKN,-1.35
4,HMYELDIYPNPAIDKINVLLPSSTTLPVKVEIYDIMGKKVNSLLTTKKAFTIETDQFEKGIYFVKA,0.187
5,HMYELREGDVVSVRILSQTGQNSYIASFAGGRFSVTSERAFAPGTVFSASVSLKDGTLVLSPL,0.0111
6,HMYFEDEELDRFVGTPAGAYTEEDVEEFRDVLLSLDIEEVPSWVRSLQLRGIDFPETLRPELYLL,-2.72
7,HMYGQEVKVLGLFGDRAFIKVDEKSAVIRIGQSHQNVQLKSISNQKAILLVDNKDIALGLGDSYQSA,-0.397
8,HMYGVAEFDEKGNVLSIEEKPVQPKSNYAVVGLYFYPNKVVGVASGIKPSARGELEITTVNQTFLRDEELK,0.0152
9,HMYHNKFADLAGFIAFNEKNEEIFTFGKYKGQNVKEVFQRDIGYYGWLQNADFPLYTKKVFTAIQLRSR,-1.07
10,HMYHPGFEALREVARQGSFIKAARALGISGPAVSKQIKSLEARLNLVLLHRTTRAVTLTEAGQRLTEILD,-0.437
11,HMYIDNVTIYDVGFNERIVHALERAGVKNLYDLSQMNFYQLQRIRNLGASSLEKVINRIHSYGILLKNES,-0.761
12,HMYIEKTAYINDTAVNVRKSATTDSDVIKVLALNTEITIIGEENDWYKVKSGNDIGYIAKRLVSDQKKE,-0.109
13,HMYIKYETVLQNITERIAALRKNGTLVLDGERTLAAEFDASRGTIRKAMRQLEENGTILREGYVTRILPE,-0.299
14,HMYIVVPDLSKKDINEVANILAAQSLRFQVIDSANFRSDFPKNAVISQKPLAGSEVKVNKKIYLQLNPS,-0.608
15,HMYLEARVKSTTPILSKPNELGKSLGKLYTNDFVALVSLHKNGLDSYYRTANGGYINAADVVIDRDV,-0.133
16,HMYLPLREVVFNALRTAIIHGEFKPGERLMEMHLAKSLGVSRTPVREAMRMLELEGLVVMIPKKGAEVAR,-0.408
17,HMYMKMNDRIRSRRKELKMTQSVLAKLVGVNRVTITGWESGDYKPGGENLQALAAALEKTPQWLLDGKD,≥ 0.43
18,HMYMTTADADMWKYVNTGRYNNDIQLMEEYKNRSMDSFEVITPEQQRKYNKAAMNLNSYYAWADPSYKPNP,-0.888
19,HMYMWQVEDLLRANELDIENIKKTIIDHYQLDDAQKSELTRWYEDLINMMRLEGVTKEGHLQINK,-1.75
20,HMYNSYALTARELELVNYVLKGNSRREMAEDSGLKENTVASYMKRLYRKIKVHSRKELKELFM,-0.422
21,HMYPDNEQTLSKLAFEFFKKRNIPISQSNINQIVTKSLGDRENLYNELLKIENFSTSGKKLTDNVIKKLIN,0.176

row,Sequence,soluble fraction (log2)
1,HMYPFSEETLKEKIREYLKTNRSINRRVLEREFYIRKQTALNWLNRLVDSGFLIKEGVRNSPVYFLAE,0.26
2,HMYPMQNYSTIIGVIELRQQSVGYATTQKRYGIGSSTVTLIMKRFKELGLTLEELRAMPPKAVEVAFYPPE,0.246
3,HMYPNEFPRKVMSVFESSGLEMFRTIEMLLAIPEYETPLPYGSGVSRSDIFVLAKSAGNLVSITV,-0.314
4,HMYQFFVDPGQIQGKRVTITGSDVNHIKNVLRMRIGEEIAVSNGKDGLEYRFGIDEILEDEVIGTLRFVKE,-1.87
5,HMYRIGELAKLADVTPDTIRYYEKQQMMDHDVRTEGGFRLYSDNDLQRLKFIRYARQLGFTLEAIRELLSI,-0.51
6,HMYRWSEEIFEKLRSDIMAALDLSREQNDEEIYRFIETEVEEYSQNNLLTLKEREQLEHLLFNSL,-1.12
7,HMYSKVSFTVSVGMTSERVSASLKALGIIDDSAKFNRYLVSNGYSTRIKVGTVELQAGQSYAEIASKLV,0.151
8,HMYSLSELERIKNFLTGYMSDYSIMMLDANEITNQVDISLKDYSDDNIESIKAAVLSHGGKTDYLNFIDDS,-1.01
9,HMYSQEEKRYMEIMEIKPQELSAENLKKQYKKLVKKYHPDLHQDDKQAAEEKFKQLTNAYQVLMRRF,-0.0526
10,HMYSSASKEEIDQLMKRLILNLDAKGYFWPQDKEKSLKLYLHNLFSKLPLNSSDIRFLHGLIRALSEE,-0.693
11,HMYSSIIGIAFTRAENKPAAPTGGSYSNPHPVDGNWKAAPYDGDGNLWYSIRHFNENVDIQDREWSDPTLG,0.0834
12,HMYSYSGSVINTYKVPVSVVLKDANGSAIASWDLPVDQSLGISAKDIATSSGTIEITGDGVNETKTVTFTK,-0.159
13,HMYTGSEGMAGLEGRAVTEVGPEAGTVLVKGEYWQARSDEPIATDRKIRVIRLEGLRLRVAEIHPEG,0.169
14,HMYTPDYLSDLMVRMAHHSTAIEGNTLTQGETKSVLVDGYIPRAMDMRELNEVLNYKAFMTFLVE,-0.35
15,HMYTTHTQSELNEAARFNGRATYQKGIYYNESKKEHFKVVNGKYQALPNVKQVNGDSWIDKTGITHKG,0.202
16,HMYTVQQLARLAGITPRTLRHYDAIGLLKPTRVGENGYRYYGSEALLRLQSILLYRELDMPLEDIRRVLDS,-1.23
17,HMYVPEVPVPDLLGRSEEEAKNLIEDLGLVFKVSKREYSKEYDEGHVMEQSVDEGAKVKENYPVEVVISR,-0.325
18,HMYYDDEELDDYRGKASDAYTAAEVEQFEEVLTTMRPEEVHGWLRSLQLRGVALPDALKDEAYMIVSEQAE,-0.727
19,HMYYIITNGKYWVIENPIRPGEYMESTKSSNAKQFTFKQAKNLLNARSKKLGWIRNGYSMVGED,0.427
